Source: the supplement of paper PMC9112550, “Optimization of the antimicrobial peptide Bac7 by deep mutational scanning” (BMC Biology, 2022)

What follows are sequences tested on Escherichia coli TOP10 (assay: shrunken log2 fold change of peptide-encoding DNA abundance (4.5 h post-induction vs induction); higher = less antimicrobial activity (less host growth inhibition)). Conditions: time post-induction: 4.5 h; library: site-saturation at positions 5, 18, 19, 20.
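Note: peptides expressed intracellularly from a pBAD plasmid library in pooled LB shake-flask culture, induced with 0.3% L-arabinose, DNA abundance read by NGS, three biological replicates, DESeq2 with apeglm shrinkage.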

First: RRIRWRPPRLPRPRPRPQGAPRP
Second: RRIRMRPPRLPRPRPRPVPHPRP
The “shrunken log2 fold change” value of the first is higher: 0.988 for the first, 0.537 for the second.

Compared with RRIRKRPPRLPRPRPRPMILPRP, RRIRMRPPRLPRPRPRPLCAPRP is higher in “shrunken log2 fold change” value: -0.388 for the first, 1.24 for the second.

RRIRIRPPRLPRPRPRPELIPRP and RRIRNRPPRLPRPRPRPHGQPRP are within 0.2 log units of each other in “shrunken log2 fold change” value: 0.0381 for the first, -0.0642 for the second.

Going from RRIRIRPPRLPRPRPRPCQYPRP to RRIRIRPPRLPRPRPRPPHPPRP, the “shrunken log2 fold change” value rises from -1.06 to 0.154.

Going from RRIRDRPPRLPRPRPRPCDVPRP to RRIRFRPPRLPRPRPRPVGPPRP, the “shrunken log2 fold change” value rises from -0.0231 to 0.405.

First: RRIRCRPPRLPRPRPRPKLWPRP
Second: RRIRQRPPRLPRPRPRPFDGPRP
The “shrunken log2 fold change” value of the first is higher: 0.121 for the first, -0.901 for the second.

RRIRWRPPRLPRPRPRPWHWPRP and RRIRSRPPRLPRPRPRPTFIPRP are within 0.2 log units of each other in “shrunken log2 fold change” value: -0.101 for the first, -0.173 for the second.

RRIRERPPRLPRPRPRPPCQPRP and RRIRFRPPRLPRPRPRPASPPRP are within 0.2 log units of each other in “shrunken log2 fold change” value: 0.0382 for the first, 0.164 for the second.

Compared with RRIRERPPRLPRPRPRPDDGPRP, RRIRARPPRLPRPRPRPPPVPRP is higher in “shrunken log2 fold change” value: -0.269 for the first, 1.04 for the second.

RRIRQRPPRLPRPRPRPEIDPRP and RRIRKRPPRLPRPRPRPGDTPRP are within 0.2 log units of each other in “shrunken log2 fold change” value: -0.0412 for the first, 0.0879 for the second.

RRIRDRPPRLPRPRPRPVAPPRP and RRIRWRPPRLPRPRPRPSPQPRP are within 0.2 log units of each other in “shrunken log2 fold change” value: 0.445 for the first, 0.266 for the second.

RRIRVRPPRLPRPRPRPKHSPRP and RRIRYRPPRLPRPRPRPCVTPRP are within 0.2 log units of each other in “shrunken log2 fold change” value: -0.189 for the first, -0.000683 for the second.

Going from RRIRWRPPRLPRPRPRPAMMPRP to RRIRFRPPRLPRPRPRPCFDPRP, the “shrunken log2 fold change” value falls from 0.306 to -0.121.

Going from RRIRGRPPRLPRPRPRPPYRPRP to RRIRHRPPRLPRPRPRPVQEPRP, the “shrunken log2 fold change” value falls from 0.388 to -0.0785.

RRIRNRPPRLPRPRPRPEKCPRP and RRIRNRPPRLPRPRPRPLRCPRP are within 0.2 log units of each other in “shrunken log2 fold change” value: -0.0684 for the first, 0.0876 for the second.

Going from RRIRDRPPRLPRPRPRPHTWPRP to RRIRSRPPRLPRPRPRPIRQPRP, the “shrunken log2 fold change” value rises from -0.491 to -0.0752.

RRIRLRPPRLPRPRPRPFVVPRP and RRIRVRPPRLPRPRPRPHIWPRP are within 0.2 log units of each other in “shrunken log2 fold change” value: -0.236 for the first, -0.244 for the second.

First: RRIRMRPPRLPRPRPRPRMAPRP
Second: RRIRVRPPRLPRPRPRPYCCPRP
The “shrunken log2 fold change” value of the first is higher: 1.38 for the first, -0.252 for the second.

First: RRIRYRPPRLPRPRPRPFYDPRP
Second: RRIRRRPPRLPRPRPRPRENPRP
The “shrunken log2 fold change” value of the first is lower: -0.708 for the first, 0.135 for the second.

First: RRIRMRPPRLPRPRPRPMQQPRP
Second: RRIRFRPPRLPRPRPRPHAQPRP
The “shrunken log2 fold change” value of the first is higher: 1.38 for the first, -0.305 for the second.

Going from RRIRYRPPRLPRPRPRPARWPRP to RRIRSRPPRLPRPRPRPLRCPRP, the “shrunken log2 fold change” value rises from 0.135 to 0.435.

First: RRIRQRPPRLPRPRPRPRAGPRP
Second: RRIRSRPPRLPRPRPRPFRPPRP
The “shrunken log2 fold change” value of the first is higher: 0.389 for the first, -0.249 for the second.

First: RRIRQRPPRLPRPRPRPTRYPRP
Second: RRIRWRPPRLPRPRPRPYVKPRP
The “shrunken log2 fold change” value of the first is higher: 0.511 for the first, -0.436 for the second.

RRIRTRPPRLPRPRPRPCKSPRP and RRIRPRPPRLPRPRPRPWQQPRP are within 0.2 log units of each other in “shrunken log2 fold change” value: 0.075 for the first, -0.0467 for the second.

Going from RRIRMRPPRLPRPRPRPENSPRP to RRIRFRPPRLPRPRPRPHNAPRP, the “shrunken log2 fold change” value falls from 2.07 to -0.54.

RRIRSRPPRLPRPRPRPKRMPRP and RRIRVRPPRLPRPRPRPHRLPRP are within 0.2 log units of each other in “shrunken log2 fold change” value: 0.00691 for the first, -0.0912 for the second.

RRIRERPPRLPRPRPRPHCDPRP and RRIRRRPPRLPRPRPRPHPFPRP are within 0.2 log units of each other in “shrunken log2 fold change” value: 0.023 for the first, 0.116 for the second.

RRIRFRPPRLPRPRPRPMMLPRP and RRIRERPPRLPRPRPRPTVPPRP are within 0.2 log units of each other in “shrunken log2 fold change” value: -0.139 for the first, -0.237 for the second.

RRIRIRPPRLPRPRPRPPILPRP and RRIRNRPPRLPRPRPRPYYGPRP are within 0.2 log units of each other in “shrunken log2 fold change” value: -0.0859 for the first, -0.105 for the second.

Compared with RRIRQRPPRLPRPRPRPWGKPRP, RRIRPRPPRLPRPRPRPDVTPRP is lower in “shrunken log2 fold change” value: -0.103 for the first, -0.399 for the second.
